Results: paper doi:10.1101/2020.06.02.095570 (bioRxiv, 2020)

B1: dehydrodolichyl diphosphate synthase (DHDDS), full-length human (enzyme)
chain: MSWIKEGELSLWERFCANIIKAGPMPKHIAFIMDGNRRYAKKCQVERQEGHSQGFNKLAETLRWCLNLGILEVTVYAFSIENFKRSKSEVDGLMDLARQKFSRLMEEKEKLQKHGVCIRVLGDLHLLPLDLQELIAQAVQATKNYNKCFLNVCFAYTSRHEISNAVREMAWGVEQGLLDPSDISESLLDKCLYTNRSPHPDILIRTSGEVRLSDFLLWQTSHSCLVFQPVLWPEYTFWNLFEAILQFQMNHSVLQKARDMYAEERKRQQLERDQATVTEQLLREGLQASGDAQLRRTRLHKLSARREERVQGFLQALELKRADWLARLGTASA
B2: sNgBRΔ167*-175* (soluble Nogo-B receptor, residues 73*-293*, loop 167-175 removed) (domain or fragment)
chain: RGGSCLAAAHHRMRWRADGRSLEKLPVHMGLVITEVEQEPSFSDIASLVVWCMAVGISYISVYDHQGIFKRNNSRLMDEILKQQQELLGLDCSKDKDDQVLNCHLAVKVLSPEDGKADIVRAAQDFCQLVAQKQKRPTDLDVDTLASLLSSNGCPDPDLVLKFGPVDSTLGFLPWHIRLTEIVSLPSHLNISYEDFFSALRQYAACEQRLGK

How the values were obtained:
cross-linking = target: the molecule itself; assay: cross-linking
[1] = target: B1; assay: crystal structure

Row | Binder | binding result (cross-linking) | binding result [1]
1 | B1 | binds | –
2 | B2 | – | binds
